# Target: T1, HLA-A*01:01 (human)
# T1 construct: MHC class I monomer first loaded with a UV-sensitive peptide (not identified) that is cleaved by UV irradiation and exchanged for the tested peptide; captured on streptavidin plates, detected with anti-β2m; also called peptide-receptive MHC molecules
# Assay: UV-ligand exchange, anti-b2m ELISA
# Source text: Candidate peptides for T cell based therapies according to the present invention were further tested for their MHC binding capacity (affinity). The individual peptide-MHC complexes were produced by UV-ligand exchange, where a UV-sensitive peptide is cleaved upon UV-irradiation and exchanged with the peptide of interest as analyzed. Only peptide candidates that can effectively bind and stabilize the peptide-receptive MHC molecules prevent dissociation of the MHC complexes. To determine the yield of the exchange reaction, an ELISA was performed based on the detection of the light chain (β2m) of stabilized MHC complexes. The assay was performed as generally described in Rodenko et al. (Rodenko et al., 2006)
# 96 well MAXISorp plates (NUNC) were coated over night with 2 ug/ml streptavidin in PBS at room temperature, washed 4× and blocked for 1 h at 37° C. in 2% BSA containing blocking buffer. Refolded HLA-A*02:01/MLA-001 monomers served as standards, covering the range of 15-500 ng/ml. Peptide-MHC monomers of the UV-exchange reaction were diluted 100-fold in blocking buffer. Samples were incubated for 1 h at 37° C., washed four times, incubated with 2 ug/ml HRP conjugated anti-β2m for 1 h at 37° C., washed again and detected with TMB solution that is stopped with […]. Absorption was measured at 450 nm.
row,peptide exchange yield [%],Binder
1,20 to 50,LCATVCGTEQY
2,20 to 50,RSDIGEFEW
3,20 to 50,ISEAPLTEV
4,20 to 50,IGDKVDAVY
5,20 to 50,HSIEVFTHY
6,20 to 50,FTTLSDLQTNMA
7,50 to 75,EVVEGKEWGSFY
8,10 to 20,VPFNLITEY
9,50 to 75,EVTDRNMLAF
10,50 to 75,VSERTGISY
11,20 to 50,TFDKQIVLL
12,20 to 50,DAVAPGREY
13,20 to 50,TVFDENLSRY
14,20 to 50,EAAPDIMHY
15,20 to 50,LEDGIEQSAY
16,20 to 50,KASSVSAEDGY
17,50 to 75,LSDAVHVEF
18,20 to 50,SAPSSSGSPLY
19,> 75,TLDSTRTLY
20,50 to 75,AQVQDTGRY
21,50 to 75,ITDVGPGNY
22,20 to 50,TPIPFDKILY
23,50 to 75,HTMEVTVY

row,peptide exchange yield [%],Binder
1,> 75,TTDPKKFQY
2,50 to 75,IPVHDSVGVTY
3,50 to 75,YLDSSKPAVY
4,10 to 20,GTKQWVHARY
5,50 to 75,SIEVFTHY
6,50 to 75,QSEKEPGQQY
7,20 to 50,YIGLKGLYF
8,20 to 50,HVSGQMLYF
9,> 75,GLIEVVTGY
10,20 to 50,ISEDKSISF
11,20 to 50,NSNLKFLEV
12,20 to 50,PIMSSSQALY
13,20 to 50,RQAPGPARDY
14,50 to 75,LTWAHSAKY
15,20 to 50,YEVDTKLLSL
16,20 to 50,YLEDRPLSQ
17,20 to 50,ITDTLIHL
18,> 75,FQYELRELY
19,20 to 50,NTHTGTRPY
20,20 to 50,SADEAHGLL
21,50 to 75,EAYLERIGY
22,20 to 50,STALSILLL
23,20 to 50,KIRAEVLSHY

row,peptide exchange yield [%],Binder
1,20 to 50,EVLGEEMYAY
2,50 to 75,YTDFVGEGLY
3,20 to 50,FLKVTGYDKDDY
4,> 75,IADNPQLSFY
5,50 to 75,ASDHWRGRY
6,20 to 50,AVAAAAGASLY
7,> 75,YTEFVDATFTK
8,> 75,ASCRSSAEY
9,20 to 50,STIDFRAGF
10,50 to 75,ITDTLIHLM
11,20 to 50,LLKAKDILY
12,50 to 75,IEKFAVLY
13,50 to 75,RTHIGYKVY
14,20 to 50,NEIDIHSIYFY
15,20 to 50,SQHIFTVSY
16,20 to 50,RTIEGDFLW
17,20 to 50,PVHDSVGVTY
18,50 to 75,NSDISIPEY
19,20 to 50,VVFDKSDLAKY
20,50 to 75,RRLNFSGFGY
21,50 to 75,SPAKQFNIY
22,> 75,TTENSGNYY
